Measurements published in publication PMC6218797, “A Novel Thermostable GH3 β-Glucosidase from Talaromyce leycettanus with Broad Substrate Specificity and Significant Soybean Isoflavone Glycosides-Hydrolyzing Capability” (BioMed Research International, 2018).
Each block holds one molecule with its values, some of them ahead of it.

Assays:
Bgl3B = biological target: T1, Bgl3B (Rasamsonia emersonii, UniProt A0A343J2C3); experiment: pNP release at […] nm, Dixon plot; type: biochemical; conditions: substrate pNPG 3 or 4 mM; pH 4.5, 65°C, citric acid-Na2HPO4; inhibition mode not stated
T1 construct: pPIC9, secreted from Pichia pastoris GS115; N-glycosylated, about 100 kDa on SDS-PAGE
T1 sequence (A0A343J2C3 1-841): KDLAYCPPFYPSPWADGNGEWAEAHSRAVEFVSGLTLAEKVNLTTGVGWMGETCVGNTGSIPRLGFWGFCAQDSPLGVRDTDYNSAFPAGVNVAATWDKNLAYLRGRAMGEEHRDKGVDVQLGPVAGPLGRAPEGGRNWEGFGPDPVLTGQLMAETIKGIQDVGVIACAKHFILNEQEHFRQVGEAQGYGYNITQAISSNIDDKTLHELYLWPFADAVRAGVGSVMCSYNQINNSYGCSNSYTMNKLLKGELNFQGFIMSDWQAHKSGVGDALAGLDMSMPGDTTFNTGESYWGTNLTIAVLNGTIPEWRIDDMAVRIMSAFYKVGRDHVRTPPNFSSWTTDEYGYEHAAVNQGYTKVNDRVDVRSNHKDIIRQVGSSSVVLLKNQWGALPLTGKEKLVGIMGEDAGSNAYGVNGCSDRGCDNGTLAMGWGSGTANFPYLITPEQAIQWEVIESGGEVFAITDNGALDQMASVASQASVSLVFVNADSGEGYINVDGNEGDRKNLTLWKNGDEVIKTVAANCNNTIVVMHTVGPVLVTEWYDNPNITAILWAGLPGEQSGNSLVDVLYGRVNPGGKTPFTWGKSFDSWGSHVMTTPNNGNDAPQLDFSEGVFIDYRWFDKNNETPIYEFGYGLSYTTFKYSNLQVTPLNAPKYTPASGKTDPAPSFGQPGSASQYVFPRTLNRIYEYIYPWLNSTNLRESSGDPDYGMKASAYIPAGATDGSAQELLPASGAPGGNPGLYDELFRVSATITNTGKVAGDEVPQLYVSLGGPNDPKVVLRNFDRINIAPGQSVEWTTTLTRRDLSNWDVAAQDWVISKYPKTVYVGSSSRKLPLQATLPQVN

purified protein = substrate: O=[N+]([O-])c1ccc(O[C@@H]2O[C@H](CO)[C@@H](O)[C@H](O)[C@H]2O)cc1; experiment: purified protein; conditions: pH 4.5, 65°C, 5 min, 0.2-1.5 mM substrate

Ki (Bgl3B): 7.1 mM
Molecule: OC[C@H]1OC(O)[C@H](O)[C@@H](O)[C@@H]1O (stereo partly drawn) [glucose]

B1: Bgl3B (Rasamsonia emersonii) (protein)
chain: T1 sequence (A0A343J2C3 1-841)
Km (purified protein): 1030 µM
kcat (purified protein): 714 s⁻¹
